Source: publication PMC10090947

Tests used:
AMOTL1 = AMOTL1 (UniProt Q8IY63); experiment: AP-MS (MS1 intensity); conditions: parent: est. 34; read off a plot
CCDC85C = CCDC85C (UniProt A6NKD9); experiment: AP-MS (MS1 intensity); conditions: parent: est. 32; read off a plot
TP53BP2 = TP53BP2 (UniProt Q13625); experiment: AP-MS (MS1 intensity); conditions: parent: est. 33; read off a plot
[1] = target: Large tumor suppressor 1 (LATS1), endogenous (UniProt O95835); experiment: Strep AP-MS; conditions: three biological replicates; parent: est. 0.0; read off a plot
Chain of UniProt O95835 (O95835 whole entry): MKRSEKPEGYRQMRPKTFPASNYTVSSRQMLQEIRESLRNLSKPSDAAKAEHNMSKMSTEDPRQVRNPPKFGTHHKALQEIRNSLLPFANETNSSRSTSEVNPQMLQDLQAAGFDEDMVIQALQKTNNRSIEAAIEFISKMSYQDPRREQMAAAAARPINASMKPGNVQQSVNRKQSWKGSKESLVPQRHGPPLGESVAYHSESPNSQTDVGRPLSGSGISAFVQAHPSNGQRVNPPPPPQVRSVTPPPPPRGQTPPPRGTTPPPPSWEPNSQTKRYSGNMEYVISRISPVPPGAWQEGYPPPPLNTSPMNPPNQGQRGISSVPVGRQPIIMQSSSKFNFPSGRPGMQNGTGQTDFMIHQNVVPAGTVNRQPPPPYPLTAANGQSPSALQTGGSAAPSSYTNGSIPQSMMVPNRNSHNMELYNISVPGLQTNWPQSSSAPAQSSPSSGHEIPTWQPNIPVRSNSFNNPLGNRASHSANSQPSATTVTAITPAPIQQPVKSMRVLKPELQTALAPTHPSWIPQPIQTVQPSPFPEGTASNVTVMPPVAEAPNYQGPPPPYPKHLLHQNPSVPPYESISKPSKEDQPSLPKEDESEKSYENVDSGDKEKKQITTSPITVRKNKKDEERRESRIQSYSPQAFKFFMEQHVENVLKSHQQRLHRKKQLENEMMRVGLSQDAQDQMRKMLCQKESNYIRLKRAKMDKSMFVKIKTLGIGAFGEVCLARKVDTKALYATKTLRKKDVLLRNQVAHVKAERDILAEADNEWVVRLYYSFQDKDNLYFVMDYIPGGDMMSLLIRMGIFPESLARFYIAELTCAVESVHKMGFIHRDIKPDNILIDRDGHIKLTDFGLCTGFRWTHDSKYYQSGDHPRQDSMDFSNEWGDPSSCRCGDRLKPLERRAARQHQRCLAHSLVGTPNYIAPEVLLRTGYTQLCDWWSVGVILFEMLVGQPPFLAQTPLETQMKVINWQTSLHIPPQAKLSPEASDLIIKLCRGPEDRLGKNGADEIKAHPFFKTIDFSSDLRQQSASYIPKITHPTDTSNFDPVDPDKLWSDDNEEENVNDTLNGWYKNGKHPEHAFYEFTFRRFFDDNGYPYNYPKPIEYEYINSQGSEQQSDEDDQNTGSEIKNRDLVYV

[2] = target: nonreceptor tyrosine phosphatase 14 (PTPN14), endogenous (UniProt Q15678); experiment: Strep AP-MS; conditions: three biological replicates; parent: est. 0.0; read off a plot
Chain of UniProt Q15678 (Q15678 whole entry): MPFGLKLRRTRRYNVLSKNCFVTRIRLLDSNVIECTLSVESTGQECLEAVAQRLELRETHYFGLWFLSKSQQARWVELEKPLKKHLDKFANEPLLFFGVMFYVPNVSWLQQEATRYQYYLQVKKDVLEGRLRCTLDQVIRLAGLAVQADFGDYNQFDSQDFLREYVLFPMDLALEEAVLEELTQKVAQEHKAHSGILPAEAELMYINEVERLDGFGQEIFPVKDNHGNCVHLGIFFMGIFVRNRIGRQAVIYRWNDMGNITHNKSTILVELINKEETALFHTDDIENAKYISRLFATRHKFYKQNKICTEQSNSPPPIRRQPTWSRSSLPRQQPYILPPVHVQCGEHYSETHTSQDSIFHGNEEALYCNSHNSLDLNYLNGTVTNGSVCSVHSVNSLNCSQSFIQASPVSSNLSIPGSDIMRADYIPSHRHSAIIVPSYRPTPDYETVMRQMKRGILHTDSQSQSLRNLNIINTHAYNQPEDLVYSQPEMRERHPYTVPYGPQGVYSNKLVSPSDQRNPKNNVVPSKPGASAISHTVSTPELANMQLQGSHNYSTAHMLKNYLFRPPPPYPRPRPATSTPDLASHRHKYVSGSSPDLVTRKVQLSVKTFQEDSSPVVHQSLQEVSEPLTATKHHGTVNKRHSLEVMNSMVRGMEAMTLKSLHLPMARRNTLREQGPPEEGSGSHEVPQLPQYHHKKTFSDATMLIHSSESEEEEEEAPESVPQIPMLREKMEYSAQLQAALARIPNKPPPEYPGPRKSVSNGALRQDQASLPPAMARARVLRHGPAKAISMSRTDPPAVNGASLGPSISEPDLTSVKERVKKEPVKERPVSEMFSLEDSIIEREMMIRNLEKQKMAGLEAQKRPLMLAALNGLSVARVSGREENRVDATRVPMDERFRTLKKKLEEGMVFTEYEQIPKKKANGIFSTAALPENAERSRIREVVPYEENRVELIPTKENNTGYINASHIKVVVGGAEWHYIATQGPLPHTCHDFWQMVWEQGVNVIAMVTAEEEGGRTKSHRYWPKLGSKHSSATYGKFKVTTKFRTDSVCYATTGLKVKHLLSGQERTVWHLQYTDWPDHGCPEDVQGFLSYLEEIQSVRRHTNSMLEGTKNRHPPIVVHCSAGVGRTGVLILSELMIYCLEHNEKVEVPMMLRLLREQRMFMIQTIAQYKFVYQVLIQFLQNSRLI

[3] = target: Large tumor suppressor 1 (LATS1), endogenous (UniProt O95835); experiment: streptavidin affinity purification and MS (MS1 intensity); conditions: three independent biological replicates; parent: est. -0.1; read off a plot
[4] = target: nonreceptor tyrosine phosphatase 14 (PTPN14), endogenous (UniProt Q15678); experiment: as above; conditions: three independent biological replicates; parent: est. -0.1; read off a plot

Chain of UniProt A6NKD9 (A6NKD9 whole entry): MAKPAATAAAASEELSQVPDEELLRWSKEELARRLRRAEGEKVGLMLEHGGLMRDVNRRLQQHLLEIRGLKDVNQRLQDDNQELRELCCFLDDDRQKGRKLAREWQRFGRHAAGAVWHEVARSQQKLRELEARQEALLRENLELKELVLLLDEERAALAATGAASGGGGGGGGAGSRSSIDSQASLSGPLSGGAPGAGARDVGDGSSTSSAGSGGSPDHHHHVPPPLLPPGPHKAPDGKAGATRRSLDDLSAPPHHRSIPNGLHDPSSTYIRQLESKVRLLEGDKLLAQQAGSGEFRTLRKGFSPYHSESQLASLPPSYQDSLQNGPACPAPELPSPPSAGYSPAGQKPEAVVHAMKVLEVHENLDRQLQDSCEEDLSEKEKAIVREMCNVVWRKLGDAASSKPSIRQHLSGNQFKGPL
Chain of UniProt Q8IY63 (Q8IY63 whole entry): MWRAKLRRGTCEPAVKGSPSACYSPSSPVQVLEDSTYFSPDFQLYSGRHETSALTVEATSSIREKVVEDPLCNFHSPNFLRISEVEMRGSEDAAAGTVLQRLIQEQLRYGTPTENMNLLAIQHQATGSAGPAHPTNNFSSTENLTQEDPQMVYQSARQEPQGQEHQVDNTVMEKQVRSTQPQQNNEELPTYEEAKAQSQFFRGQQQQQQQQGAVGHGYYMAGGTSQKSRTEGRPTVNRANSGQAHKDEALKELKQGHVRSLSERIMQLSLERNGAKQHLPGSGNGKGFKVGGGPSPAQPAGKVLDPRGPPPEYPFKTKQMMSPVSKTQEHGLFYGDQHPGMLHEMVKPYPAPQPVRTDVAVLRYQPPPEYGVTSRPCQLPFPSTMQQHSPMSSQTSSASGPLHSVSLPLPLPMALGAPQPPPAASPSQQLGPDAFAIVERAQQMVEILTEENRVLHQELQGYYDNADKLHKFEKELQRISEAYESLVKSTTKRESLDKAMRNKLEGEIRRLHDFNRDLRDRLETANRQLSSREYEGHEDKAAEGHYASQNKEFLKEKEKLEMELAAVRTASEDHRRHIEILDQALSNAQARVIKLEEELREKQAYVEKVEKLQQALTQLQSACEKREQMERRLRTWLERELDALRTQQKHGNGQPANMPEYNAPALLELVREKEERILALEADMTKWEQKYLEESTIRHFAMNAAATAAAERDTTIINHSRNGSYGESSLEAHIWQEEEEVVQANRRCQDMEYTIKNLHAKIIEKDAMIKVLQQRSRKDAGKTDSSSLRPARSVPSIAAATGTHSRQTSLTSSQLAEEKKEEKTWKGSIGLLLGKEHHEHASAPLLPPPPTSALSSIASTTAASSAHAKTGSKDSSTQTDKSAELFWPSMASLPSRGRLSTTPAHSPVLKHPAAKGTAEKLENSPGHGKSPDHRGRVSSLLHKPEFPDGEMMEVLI
Chain of UniProt Q13625 (Q13625 whole entry): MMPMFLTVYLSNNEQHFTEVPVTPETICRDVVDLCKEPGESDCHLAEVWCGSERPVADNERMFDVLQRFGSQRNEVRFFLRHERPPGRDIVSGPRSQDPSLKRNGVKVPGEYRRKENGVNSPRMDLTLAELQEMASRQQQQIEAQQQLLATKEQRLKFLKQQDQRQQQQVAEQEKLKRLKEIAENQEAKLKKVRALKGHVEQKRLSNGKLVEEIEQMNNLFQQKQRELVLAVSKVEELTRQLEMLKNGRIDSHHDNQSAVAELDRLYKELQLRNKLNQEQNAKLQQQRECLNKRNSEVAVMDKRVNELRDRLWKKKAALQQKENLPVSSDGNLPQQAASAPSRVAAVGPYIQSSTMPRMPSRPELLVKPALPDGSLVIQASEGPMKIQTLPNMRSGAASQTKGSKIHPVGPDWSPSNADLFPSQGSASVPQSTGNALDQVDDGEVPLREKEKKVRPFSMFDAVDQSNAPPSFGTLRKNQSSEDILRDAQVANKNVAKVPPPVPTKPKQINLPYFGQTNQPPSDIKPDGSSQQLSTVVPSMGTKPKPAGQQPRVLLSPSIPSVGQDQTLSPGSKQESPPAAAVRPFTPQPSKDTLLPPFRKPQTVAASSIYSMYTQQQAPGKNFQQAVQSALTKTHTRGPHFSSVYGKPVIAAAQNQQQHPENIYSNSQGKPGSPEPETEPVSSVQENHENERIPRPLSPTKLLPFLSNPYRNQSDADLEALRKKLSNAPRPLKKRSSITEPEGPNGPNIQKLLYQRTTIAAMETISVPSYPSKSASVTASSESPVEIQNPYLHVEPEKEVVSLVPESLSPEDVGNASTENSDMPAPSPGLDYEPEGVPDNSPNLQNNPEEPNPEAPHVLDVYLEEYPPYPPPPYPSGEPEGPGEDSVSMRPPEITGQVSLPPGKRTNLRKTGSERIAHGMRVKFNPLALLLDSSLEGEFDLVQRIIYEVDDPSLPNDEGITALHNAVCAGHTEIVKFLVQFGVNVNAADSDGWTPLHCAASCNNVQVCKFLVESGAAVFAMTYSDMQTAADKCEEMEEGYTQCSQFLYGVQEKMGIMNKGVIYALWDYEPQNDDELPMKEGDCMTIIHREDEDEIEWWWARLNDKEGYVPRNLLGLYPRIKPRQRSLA

| Substance | response (log2(Intensity)) (AMOTL1) | response (log2(Intensity)) (CCDC85C) | response (log2(Intensity)) (TP53BP2) | other: log2(mutant vs WT) [1] | other: log2(mutant vs WT) [2] | other: log2(mutant vs WT) [3] | other: log2(mutant vs WT) [4] |
| --- | --- | --- | --- | --- | --- | --- | --- |
| Strep‐HA YAP1 (wild type) S367A | 34 | 28 | 30 |  |  |  |  |
| Strep‐HA YAP1 (wild type) ΔWW1 |  |  |  | -7.2 | -3.4 | -7.2 | -3.4 |
| Strep‐HA YAP1 (wild type) ΔWW1/2 |  |  |  | -7 | -9.2 | -7 | -9.2 |

The next lines start with the values.

| response (log2(Intensity)) (AMOTL1) | response (log2(Intensity)) (CCDC85C) | response (log2(Intensity)) (TP53BP2) | other: log2(mutant vs WT) [1] | other: log2(mutant vs WT) [2] | other: log2(mutant vs WT) [3] | other: log2(mutant vs WT) [4] | Substance |
| --- | --- | --- | --- | --- | --- | --- | --- |
|  |  |  |  |  | -0.6 | 0 | Strep‐HA YAP1 (wild type) 5SA |
|  |  |  | -3.6 | -7.7 | -3.6 | -7.7 | Strep‐HA YAP1 (wild type) ΔWW2 |
